Measurements as given in paper PMC6754363.

Target: Bacillus anthracis ribonucleotide reductase subunit NrdF (Bacillus anthracis) (UniProt Q81TB4)
Assay: crystal structure

Substance: Bacillus anthracis ribonucleotide reductase subunit NrdF (from UniProt Q81TB4 1-322) (enzyme)
- stoichiometry N: 2
